{
  "source": "patent US20120219547A1",
  "key": {"[1]": {"biological_target": "recombinant human tumor necrosis factor-α (human) (UniProt P01375)", "sequence (P01375 77-233 limits assumed)": "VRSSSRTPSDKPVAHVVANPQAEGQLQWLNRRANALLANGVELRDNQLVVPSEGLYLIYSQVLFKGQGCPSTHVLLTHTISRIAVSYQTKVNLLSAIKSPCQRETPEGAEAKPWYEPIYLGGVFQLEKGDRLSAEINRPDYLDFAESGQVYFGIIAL", "assay": "cell-based or functional assay"}, "[2]": {"biological_target": "recombinant human tumor necrosis factor-α (human) (UniProt P01375)", "assay": "SPR, Biacore X100; antibody captured by goat anti-human IgG Fc on CM5 chip, TNFα as analyte"}},
  "data": [
    {"substance": "Humira (adalimumab, purchased from Abbott Laboratories) (antibody)", "values": [
      {"measurement": "EC50(ng/mL), neutralization of TNFα killing effect on L929 cell", "setting": "[1]", "value": 19.1, "unit": "ng/mL"},
      {"measurement": "IC50 (concentration at which 50% of the rhTNFα toxicity to L929 cells can be neutralized)", "setting": "[1]", "value": "0.01 to 0.04", "unit": "µg/mL"},
      {"measurement": "Ka", "setting": "[2]", "value": "9.3e+09", "unit": "M⁻¹"},
      {"measurement": "Kd", "setting": "[2]", "value": 108, "unit": "pM"}
    ]}
  ]
}
